{
  "source": "patent US10221404B2",
  "about": "“Method for modifying characteristics of a lipase” (Novozymes A/S, priority 2014, dated 2019)",
  "key": {"[1]": {"experiment": "Hydrolytic activity, kinetic assay with p-nitrophenyl acyl esters", "format": "biochemical", "conditions": "substrates C3, C6, C10, C12, C16 at 1 mM; 50 mM Tris pH 7.7, 0.4% TritonX-100; 405 nm for 5 minutes", "description": "The hydrolytic activity of RmL with and without propeptide on various fatty acids was investigated in a kinetic assay using p-nitrophenyl acyl esters as substrate. The 100 mM stock solutions in DMSO of the substrates: p-Nitrophenyl butyrate (C3), p-Nitrophenyl caproate (C6), p-Nitrophenyl caprate (C10), p-Nitrophenyl laurate (C12) and p-Nitrophenyl palmitate (C16) (all from Sigma-Aldrich Danmark NS, Kirkebjerg Allé 84, 2605 Brondby; Cat. no.: C3:N-9876, C6: N-0502, C10: N-0252, C12: N-2002, C16: N-2752) were diluted to a final concentration of 1 mM into assay buffer (50 mM Tris; pH 7.7; 0.4% TritonX-100).\nRmL with and without propeptide and appropriate controls: Buffer (negative), Lipex™ (positive) RmL with and without propeptide in 50 mM Hepes pH8.0; 10 ppm TritonX-100; 20 mM CaCl2 were added to the substrate solution in the following final concentrations: 0.01 mg/mL; 5×10^−3 mg/mL; […]; and 1.25×10^−4 mg/mL in 96-well NUNC plates (Cat. No: 260836, Kamstrupvej 90, DK-4000, Roskilde). Release of p-nitrophenol by hydrolysis of p-nitrophenyl acyl was monitored at 405 nm for 5 minutes in 10 second intervals on a Spectra max 190 (Molecular Devices GmbH, Bismarckring 39, 88400 Biberach an der Riss, GERMANY)."}, "[2]": {"experiment": "AMSA wash performance after activation with detergent and/or protease", "design": "key to No (RP) / Det (RP) / Sav (RP) / Det + Sav (RP): wash performance relative to reference lipase (Lipolase), RP ratio", "description": "(§1) Washing experiments were performed using Automatic Mechanical Stress Assay (AMSA) in order to assess the wash performance in laundry. The AMSA plate has a number of slots for test solutions and a lid firmly squeezing the laundry sample, the textile to be washed against all the slot openings. During the washing time, the plate, test solutions, textile and lid were vigorously shaken to bring the test solution in contact with the textile and apply mechanical stress in a regular, periodic oscillating manner. For further description see WO02/42740 especially the paragraph “Special method embodiments” at page 23-24.\n(§2) The laundry experiments were conducted in Model Detergent B, pH8. The experimental conditions are specified below:\n(§3) Final adjustments to the specified pH were done with NaOH or citric acid. Water hardness was adjusted to 15° dH by addition of CaCl2 and MgCl2 (Ca^2+:Mg^2+=4:1) to the test system.\n(§4) After washing the textiles were flushed in tap water and excess water was removed from the textiles using filter paper and immediately thereafter the textiles were dried at 85° C. for 5 min.\n(§5) The wash performance was measured as the color change of the washed soiled textile. The soil was cream mixed with turmeric. Turmeric contains the colorant curcumin, which function as a pH indicator by having pH dependent color change. Lipase activity leads to release of free fatty acids from the cream acylglycerides and this leads to pH decrease and thereby color change of the curcumin pH indicator. Lipase wash performance can therefore be expressed as the extent of color change of light reflected-emitted from the washed soiled textile when illuminated with white light.\n(§6) Color measurements were made with a professional flatbed scanner (EPSON EXPRESSION 10000XL, Atea NS, Lautrupvang 6, 2750 Ballerup, Denmark), which was used to capture an image of the washed soiled textile. To extract a value for the light intensity from the scanned images, 24-bit pixel values from the image were converted into values for red, green and blue (RGB).\n(§7) Color change due to lipase activity was measured as the increase in the reflection-emitting of green light (G) relative to the sum of reflected-emitted blue (B) and red (R) light. The wash performance (RP(Wash)) of a lipase relative to a reference lipase (Lipolase™) was calculated as: RP(Wash)=(G/(B+R)(tested lipase)−G/(B+R)(no enzyme))/(G/(B+R)(lipase ref.)−G/(B+R)(no enzyme)).\nWild type RmL without or with propeptide respectively were submitted to no, detergent, protease or detergent+protease treatment prior to performance test in AMSA to test the activation level of the lipase after the treatment. […] […] Wash performance of all samples were determined by Automatic Mechanical Stress Assay (AMSA) as described above."}, "[3]": {"experiment": "AMSA wash performance, specificity of inhibitory effect of propeptide", "conditions": "for With inhibitor RP (wash): propeptide SEQ ID No: 4 in 320:1 molar ratio, 3 hours at 4° C., normalized to wash performance without inhibitor; for No inhibitor RP (wash): without propeptide SEQ ID No: 4, normalized per lipase", "description": "as §1, §2, §3, §4, §5, §6, §7\nThe inhibitory specificity of the isolated propeptide was determined by mixing the isolated propeptide in a 320:1 molar ratio with 5 different lipases including the active RmL. All enzymes were diluted in 10 mM succinic acid buffer, pH6.5, to a concentration of 1.5 uM and were mixed (1:1) with purified propeptide dilutions. After 3 hours incubation at 4° C. the lipase performance of the incubated lipase-inhibitor samples were determined by Automatic Mechanical Stress Assay (AMSA) as described above. The relative wash performance “RP(wash)” is for each lipase normalized to the wash performance without inhibitor."}},
  "data": [
    {"molecule": "RmL with propeptide: Rhizomucor miehei lipase with its native N-terminal propeptide non-covalently bound (inactive RmL) (protein, UniProt P19515 25-363, looked up, pro-form) pro-form: VPIKRQSNSTVDSLPPLIPSRTSAPSSSPSTTDPEAPAMSRNGPLPSDVETKYGMALNATSYPDSVVQAMSIDGGIRAATSQEINELTYYTTLSANSYCRTVIPGATWDCIHCDATEDLKIIKTWSTLIYDTNAMVARGDSEKTIYIVFRGSSSIRNWIADLTFVPVSYPPVSGTKVHKGFLDSYGEVQNELVATVLDQFKQYPSYKVAVTGHSLGGATALLCALDLYQREEGLSSSNLFLYTQGQPRVGDPAFANYVVSTGIPYRRTVNERDIVPHLPPAAFGFLHAGEEYWITDNSPETVQVCTSDLETSDCSNSIVPFTSVLDHLSYFGINTGLCT", "values": [
      {"measurement": "hydrolytic activity on p-nitrophenyl acyl esters", "setting": "[1]", "result": "no activity"},
      {"measurement": "Sav (RP)", "setting": "[2]; 10 minutes in 1.35% (v/v) Savinase in 10 mM succinic acid pH6.5", "result": 0.27},
      {"measurement": "Det + Sav (RP)", "setting": "[2]; 10 minutes in 1.35% (v/v) Savinase in 77% (w/w) Detergent B", "result": 0.88},
      {"measurement": "Det (RP)", "setting": "[2]; 10 minutes in 77% (w/w) Model detergent B", "result": 0.60},
      {"measurement": "No (RP)", "setting": "[2]; 60 minutes in 10 mM succinic acid pH6.5", "result": 0.18},
      {"measurement": "Sav (RP)", "setting": "[2]; 60 minutes in 1.35% (v/v) Savinase in 10 mM succinic acid pH6.5", "result": 0.39},
      {"measurement": "Det + Sav (RP)", "setting": "[2]; 60 minutes in 1.35% (v/v) Savinase in 77% (w/w) Detergent B", "result": 0.85},
      {"measurement": "Det (RP)", "setting": "[2]; 60 minutes in 77% (w/w) Model detergent B", "result": 0.69},
      {"measurement": "activation level of the lipase", "setting": "[2]; Savinase treatment in detergent, after 10 minutes", "result": "full activation"}
    ]},
    {"molecule": "SEQ ID NO: 7 (RhimiLip1): lipase of SEQ ID NO: 7, tested for propeptide specificity (protein, Rhizopus microsporus var. chinensis) MVSFISISQGVSLCLLVSSMMLGSSAVPVAGHKGSVKATNGTDFQLPPLISSRCTPPSHPETTGDPDAEAYYINKSVQWYQAHGGNYTALIKRDTETVGGMTLDLPENPPPIPATSTAPSSDSGEVVTATAAQIKELTNYAGVAATAYCRSVVPGTKWDCKQCLKYVPDGKLIKTFTSLLTDTNGFILRSDAQKTIYVTFRGTNSFRSAITDMVFTFTDYSPVKGAKVHAGFLSSYNQVVKDYFPVVQDQLTAYPDYKVIVTGHSLGGAQALLAGMDLYQREKRLSPKNLSIYTVGCPRVGNNAFAYYVDSTGIPFHRTVHKRDIVPHVPPQAFGYLHPGVESWIKEDPADVQICTSNIETKQCSNSIVPFTSIADHLTYFGINEGSCL", "values": [
      {"measurement": "With inhibitor RP (wash)", "setting": "[3]", "result": 0.92},
      {"measurement": "No inhibitor RP (wash)", "setting": "[3]", "result": 1.00}
    ]},
    {"molecule": "SEQ ID NO: 6 (MuciLip2CN): lipase of SEQ ID NO: 6, tested for propeptide specificity (protein, Mucor circinelloides) MVSFVSISQGISLFIVVSSMLTGSAHAAPASSHSNSSKNATTSDASTFTLPPIISSRVTPPKVPSGSHNVEDANVAKNKKWFEAHGGKLNVTKRADETVGGYTMDLPSNAPPLPAVPSTSTVVIASTAQISEFKKYAGIASTAYCRSVVPLNQWSCTNCLKFVPDGKLIKTFTSLVTDTNGFVLRSDAQKTIYVVFRGTNSIRSAITDLVFELTNYTPVSGAKVHTGFYASYKAVVSDYFPAVQSQLTAYPGYKVIVTGHSLGGAQALLAGMDLYQREPRLSKSNLAIYTVGCPRVGNPAFAYYVDSTGITFSRSVNNRDIVPHVPPQAWGFLHPGVEAWARSSSNVQICTPNIETGLCSNSIVPFTSFTDHLTYYDLNEGLCL", "values": [
      {"measurement": "With inhibitor RP (wash)", "setting": "[3]", "result": 1.10},
      {"measurement": "No inhibitor RP (wash)", "setting": "[3]", "result": 1.00}
    ]},
    {"molecule": "SEQ ID NO: 5 (Lipex): commercial lipase product Lipex (Novozymes A/S), SEQ ID NO: 5 (protein, listed as Thermomyces lanuginosus) EVSQDLFNQFNLFAQYSAAAYCGKNNDAPAGTNITCTGNACPEVEKADATFLYSFEDSGVGDVTGFLALDNTNKLIVLSFRGSRSIENWIGNLNFDLKEINDICSGCRGHDGFTSSWRSVADTLRQKVEDAVREHPDYRVVFTGHSLGGALATVAGADLRGNGYDIDVFSYGAPRVGNRAFAEFLTVQTGGTLYRITHTNDIVPRLPPREFGYSHSSPEYWIKSGTLVPVRRRDIVKIEGIDATGGNNQPNIPDIPAHLWYFGLIGTCL", "values": [
      {"measurement": "With inhibitor RP (wash)", "setting": "[3]", "result": 0.89},
      {"measurement": "No inhibitor RP (wash)", "setting": "[3]", "result": 1.00}
    ]},
    {"molecule": "isolated propeptide: propeptide of RmL, amino acid sequence SEQ ID No: 4, purified from RmL (protein, listed as Rhizomucor miehei) VPIKRQSNSTVDSLPPLIPSRTSAPSSSPSTTDPEAPAMSRNGPLPSDVETKYGMALNATSYPDSVVQAM", "values": [
      {"measurement": "inhibitory specificity of the isolated propeptide", "setting": "[3]; 320:1 molar ratio with different lipases", "result": "exclusively effect with RmL"}
    ]}
  ]
}
